Values of other authors in PMC5040164.

Target: SAS1B (Mus musculus) (UniProt Q6HA09)
Chain of UniProt Q6HA09 (Q6HA09 24-435): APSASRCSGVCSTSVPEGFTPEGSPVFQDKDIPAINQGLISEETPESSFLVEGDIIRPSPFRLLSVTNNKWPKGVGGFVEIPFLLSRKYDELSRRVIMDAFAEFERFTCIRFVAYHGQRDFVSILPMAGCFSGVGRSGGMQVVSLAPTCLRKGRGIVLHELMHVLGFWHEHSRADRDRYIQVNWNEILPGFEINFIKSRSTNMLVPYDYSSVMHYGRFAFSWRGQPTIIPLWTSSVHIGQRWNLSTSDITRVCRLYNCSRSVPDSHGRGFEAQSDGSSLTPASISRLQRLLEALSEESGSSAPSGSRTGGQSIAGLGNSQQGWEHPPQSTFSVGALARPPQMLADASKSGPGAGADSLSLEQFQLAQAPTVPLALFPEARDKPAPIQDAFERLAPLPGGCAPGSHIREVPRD

Kd: 0.32 nM
Substance: SLLP1 (from UniProt Q9D9X8)
